Reference: the supplement of paper PMC6757056
± gives the standard deviation of the averaged measurements.

B1: library; a variant is named by its letters at N, in order (parent)
chain: GCUGUCACCGGUGCUUGGUACGUUAUAUUCAGCCGGUCUGAUGAGUCUNNNNNNAGACGAAACAGC

Assays:
(6R,S)-folinic acid [1] = variants of: B1; assay: FACS-Seq fitted mean relative fluorescence mCherry/BFP without ligand (log10 relative fluorescence); HEK293T overexpressing SLC46A1; higher = higher reporter protein expression; conditions: without (6R,S)-folinic acid; ligand present: no
Summary of the method: (§1)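 Enriched HEK293T cells carrying, by lentivirus, an mCherry reporter with the ribozyme switch and an EF1α-BFP marker spent 48 h with or without ligand and were sorted into 6 bins by mCherry/BFP. MiSeq sequencing of PCR-amplified bin genomic DNA gave bin counts. Fluorescence was calculated as the fitted normal mean of those counts. Counts were binned on log10(mCherry/BFP), and means were scaled to five spiked-in control ribozymes.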

(6R,S)-folinic acid [2] = variants of: B1; assay: normalized RNA/DNA level without ligand (relative to sTRSVctl = 100) (log10 (% of sTRSVctl)); HEK293T overexpressing SLC46A1; higher = less ribozyme self-cleavage, higher mRNA level; conditions: without (6R,S)-folinic acid; ligand present: no
Method: (§2)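 Hammerhead (sTRSV) ribozyme switch libraries with a ligand aptamer grafted on stem I and a randomized N4-6 loop II, cloned into the 3' UTR of mCherry and transiently transfected into HEK293T cells; RNA-Seq 72 h post transfection with ligand added 1 h before transfection; RNA read count / plasmid DNA read count normalized to the non-cleaving sTRSVctl (x100), log10; sequences with >100 DNA reads. FACS-Seq: lentiviral library sorted into 6 bins after 48 h ligand, log-normal fit mean of mCherry/BFP scaled to controls. Printed sequences are partial switch sequences.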

(6R,S)-folinic acid [3] = variants of: B1; assay: FACS-Seq fitted mean relative fluorescence mCherry/BFP with ligand (log10 relative fluorescence); HEK293T overexpressing SLC46A1; ligand concentration (+) FACS-Seq: 6 mM; higher = higher reporter protein expression; conditions: with (6R,S)-folinic acid; ligand present: yes
Summary of the method: as §1

(6R,S)-folinic acid [4] = variants of: B1; assay: normalized RNA/DNA level with ligand (relative to sTRSVctl = 100) (log10 (% of sTRSVctl)); HEK293T overexpressing SLC46A1; ligand concentration (+) RNA-Seq: 6 mM; higher = less ribozyme self-cleavage, higher mRNA level; conditions: with (6R,S)-folinic acid; ligand present: yes
Method: as §2

| Variant | FACS-Seq fitted mean (log10) ((6R,S)-folinic acid [1]) | normalized RNA/DNA level without ligand (log10) ((6R,S)-folinic acid [2]) | FACS-Seq fitted mean (log10) ((6R,S)-folinic acid [3]) | normalized RNA/DNA level with ligand (log10) ((6R,S)-folinic acid [4]) |
| --- | --- | --- | --- | --- |
| GCUGUCACCGGUGCUUGGUACGUUAUAUUCAGCCGGUCUGAUGAGUCUCAGAUAAGACGAAACAGC [CAGAUA] | 0.631 ± 0.27 | 1.959 ± 0.008 | 0.663 ± 0.087 | 1.97 ± 0.027 |
| GCUGUCACCGGUGCUUGGUACGUUAUAUUCAGCCGGUCUGAUGAGUCUAAGAGGAGACGAAACAGC [AAGAGG] | 0.589 ± 0.041 | 1.843 ± 0.0052 | 0.632 ± 0.11 | 1.99 ± 0.021 |
| GCUGUCACCGGUGCUUGGUACGUUAUAUUCAGCCGGUCUGAUGAGUCUAAGAGUAGACGAAACAGC [AAGAGU] | 0.413 ± 0.019 | 1.924 ± 0.0098 | 0.369 ± 0.0072 | 2.02 ± 0.047 |
| GCUGUCACCGGUGCUUGGUACGUUAUAUUCAGCCGGUCUGAUGAGUCUAAGAUCAGACGAAACAGC [AAGAUC] | 0.442 ± 0.061 | 2.04 ± 0.0043 | 0.504 ± 0.1 | 2.02 ± 0.029 |
| GCUGUCACCGGUGCUUGGUACGUUAUAUUCAGCCGGUCUGAUGAGUCUAAGAUGAGACGAAACAGC [AAGAUG] | 0.3831 ± 0.00047 | 1.8871 ± 0.00048 | 0.235 ± 0.29 | 1.997 ± 0.018 |
| GCUGUCACCGGUGCUUGGUACGUUAUAUUCAGCCGGUCUGAUGAGUCUAAGAUAAGACGAAACAGC [AAGAUA] | -0.141 ± 0.082 | 1.959 ± 0.0077 | -0.581 ± 0.18 | 1.994 ± 0.015 |
| GCUGUCACCGGUGCUUGGUACGUUAUAUUCAGCCGGUCUGAUGAGUCUGAGAGUAGACGAAACAGC [GAGAGU] | 0.347 ± 0.02 | 1.982 ± 0.013 | 0.471 ± 0.28 | 2.014 ± 0.0034 |
| GCUGUCACCGGUGCUUGGUACGUUAUAUUCAGCCGGUCUGAUGAGUCUGAGAGGAGACGAAACAGC [GAGAGG] | 0.109 ± 0.067 | 1.901 ± 0.012 | 0.336 ± 0.41 | 2.03 ± 0.026 |
| GCUGUCACCGGUGCUUGGUACGUUAUAUUCAGCCGGUCUGAUGAGUCUCAGAGGAGACGAAACAGC [CAGAGG] | -0.0517 ± 0.073 | 1.9 ± 0.016 | 0.0689 ± 0.4 | 2.002 ± 0.0054 |
| GCUGUCACCGGUGCUUGGUACGUUAUAUUCAGCCGGUCUGAUGAGUCUUAGAGGAGACGAAACAGC [UAGAGG] | 0.0109 ± 0.02 | 1.561 ± 0.013 | 0.481 ± 0.11 | 1.9 ± 0.052 |
| GCUGUCACCGGUGCUUGGUACGUUAUAUUCAGCCGGUCUGAUGAGUCUUAGAGCAGACGAAACAGC [UAGAGC] | 0.0862 ± 0.082 | 1.93 ± 0.022 | 0.445 ± 0.031 | 1.99 ± 0.048 |
